The values below come from PMC6748613.

Assay in all cases: AUC
For assay [1], the target named is bH1 Fab variant W^H33-D^H98-G^H99-S^L30b.
In assay [2] the target is bH1 Fab variant Y^H33-F^H98-G^H99-S^L30b.
Assay [3] has as its target bH1 Fab variant W^H33-M^H98-D^H99-R^L30b.
Assay [4] concerns the target bH1 Fab variant W^H33-W^H98-G^H99-S^L30b.
Assay [5] deals with bH1 Fab variant W^H33-W^H98-D^H99-R^L30b.
Assay [6] concerns the target bH1 Fab variant Y^H33-M^H98-M^H99-S^L30b.
Assay [7] addresses bH1 Fab variant Y^H33-M^H98-G^H99-S^L30b.
Assay [8] deals with bH1 Fab variant Y^H33-D^H98-G^H99-R^L30b.
The target of assay [9] is bH1 Fab variant Y^H33-W^H98-G^H99-S^L30b.

What is called Kd is the concentration at which binding is half-saturated. A low value points to a tighter complex. In assay [1], “bH1 Fab variant W^H33-D^H98-G^H99-S^L30b” came in with a Kd of 1470 mM and a dimer % at 1 mg/mL of 1.2%. In assay [2], “bH1 Fab variant Y^H33-F^H98-G^H99-S^L30b” gave a dissociation constant (Kd) of 1.29 mM and a dimer % at 1 mg/mL of 1%. As to “bH1 Fab variant W^H33-M^H98-D^H99-R^L30b”, the dissociation constant Kd in assay [3] worked out at 3.98 mM. Turning to “bH1 Fab variant W^H33-W^H98-G^H99-S^L30b”, in assay [4], the equilibrium dissociation constant (Kd) amounted to 2.68 mM and the dimer % at 1 mg/mL amounted to 1.4%. Take “bH1 Fab variant W^H33-W^H98-D^H99-R^L30b”: in [5], the Kd came to 1.33 mM and the dimer % at 1 mg/mL is 1.2%. In assay [6], “bH1 Fab variant Y^H33-M^H98-M^H99-S^L30b” registered a Kd of 19.9 mM. On to “bH1 Fab variant Y^H33-M^H98-G^H99-S^L30b”, for which, in assay [7], the dissociation constant (Kd) turned out to be 179 mM and the dimer % at 1 mg/mL stood at 1.4%. With “bH1 Fab variant Y^H33-D^H98-G^H99-R^L30b”, in [8], the dissociation constant Kd is 8.94 mM. That is a millimolar value. As for “bH1 Fab variant Y^H33-W^H98-G^H99-S^L30b”, in [9], the Kd was 5.73 mM and the dimer % at 1 mg/mL was 2.8%.
